Results as given in IntAct's records for PubMed 18172500.

B1: Aprataxin and PNK-like factor (Homo sapiens), Q8IW19 (parent)
chain: MSGGFELQPRDGGPRVALAPGETVIGRGPLLGITDKRVSRRHAILEVAGGQLRIKPIHTNPCFYQSSEKSQLLPLKPNLWCYLNPGDSFSLLVDKYIFRILSIPSEVEMQCTLRNSQVLDEDNILNETPKSPVINLPHETTGASQLEGSTEIAKTQMTPTNSVSFLGENRDCNKQQPILAERKRILPTWMLAEHLSDQNLSVPAISGGNVIQGSGKEEICKDKSQLNTTQQGRRQLISSGSSENTSAEQDTGEECKNTDQEESTISSKEMPQSFSAITLSNTEMNNIKTNAQRNKLPIEELGKVSKHKIATKRTPHKEDEAMSCSENCSSAQGDSLQDESQGSHSESSSNPSNPETLHAKATDSVLQGSEGNKVKRTSCMYGANCYRKNPVHFQHFSHPGDSDYGGVQIVGQDETDDRPECPYGPSCYRKNPQHKIEYRHNTLPVRNVLDEDNDNVGQPNEYDLNDSFLDDEEEDYEPTDEDSDWEPGKEDEEKEDVEELLKEAKRFMKRK
B2: E3 ubiquitin-protein ligase CHFR (Homo sapiens), Q96EP1-1 (parent)
chain: MERPEEGKQSPPPQPWGRLLRLGAEEGEPHVLLRKREWTIGRRRGCDLSFPSNKLVSGDHCRIVVDEKSGQVTLEDTSTSGTVINKLKVVKKQTCPLQTGDVIYLVYRKNEPEHNVAYLYESLSEKQGMTQESFEANKENVFHGTKDTSGAGAGRGADPRVPPSSPATQVCFEEPQPSTSTSDLFPTASASSTEPSPAGRERSSSCGSGGGGISPKGSGPSVASDEVSSFASALPDRKTASFSSLEPQDQEDLEPVKKKMRGDGDLDLNGQLLVAQPRRNAQTVHEDVRAAAGKPDKMEETLTCIICQDLLHDCVSLQPCMHTFCAACYSGWMERSSLCPTCRCPVERICKNHILNNLVEAYLIQHPDKSRSEEDVQSMDARNKITQDMLQPKVRRSFSDEEGSSEDLLELSDVDSESSDISQPYVVCRQCPEYRRQAAQPPHCPAPEGEPGAPQALGDAPSTSVSLTTAVQDYVCPLQGSHALCTCCFQPMPDRRAEREQDPRVAPQQCAVCLQPFCHLYWGCTRTGCYGCLAPFCELNLGDKCLDGVLNNNSYESDILKNYLATRGLTWKNMLTESLVALQRGVFLLSDYRVTGDTVLCYCCGLRSFRELTYQYRQNIPASELPVAVTSRPDCYWGRNCRTQVKAHHAMKFNHICEQTRFKN

Variants of: B1
Conditions: with parp1_human PARP1, P09874
Target sequence in this assay (P09874 whole entry): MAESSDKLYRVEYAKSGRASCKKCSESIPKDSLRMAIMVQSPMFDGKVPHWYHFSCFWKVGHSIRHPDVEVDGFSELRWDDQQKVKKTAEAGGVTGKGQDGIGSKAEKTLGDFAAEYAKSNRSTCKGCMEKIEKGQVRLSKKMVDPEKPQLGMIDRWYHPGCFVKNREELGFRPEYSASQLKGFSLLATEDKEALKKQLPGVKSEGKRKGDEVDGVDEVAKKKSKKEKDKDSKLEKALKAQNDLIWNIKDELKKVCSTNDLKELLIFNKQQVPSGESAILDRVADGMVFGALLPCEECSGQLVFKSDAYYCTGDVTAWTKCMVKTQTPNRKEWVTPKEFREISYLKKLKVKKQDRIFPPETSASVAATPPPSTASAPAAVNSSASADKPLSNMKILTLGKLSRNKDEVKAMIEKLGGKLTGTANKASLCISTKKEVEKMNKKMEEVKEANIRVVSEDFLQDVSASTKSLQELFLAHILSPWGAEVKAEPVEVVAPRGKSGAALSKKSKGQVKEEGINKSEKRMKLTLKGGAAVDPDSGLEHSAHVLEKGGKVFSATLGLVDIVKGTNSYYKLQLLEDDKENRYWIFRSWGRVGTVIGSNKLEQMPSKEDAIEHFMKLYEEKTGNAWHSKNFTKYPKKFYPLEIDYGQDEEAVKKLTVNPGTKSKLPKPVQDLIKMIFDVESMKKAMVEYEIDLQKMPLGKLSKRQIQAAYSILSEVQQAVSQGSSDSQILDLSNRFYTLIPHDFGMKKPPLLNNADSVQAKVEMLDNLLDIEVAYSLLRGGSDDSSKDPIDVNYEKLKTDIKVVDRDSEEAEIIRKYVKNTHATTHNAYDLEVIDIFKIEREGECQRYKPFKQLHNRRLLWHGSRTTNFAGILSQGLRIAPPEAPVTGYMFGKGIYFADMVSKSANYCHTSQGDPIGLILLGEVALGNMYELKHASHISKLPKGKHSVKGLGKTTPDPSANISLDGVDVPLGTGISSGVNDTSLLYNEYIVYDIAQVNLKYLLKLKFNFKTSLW

| effect of a mutation on the interaction | Variant |
| --- | --- |
| disrupting interaction | C379A;C385A;C421A;C427A |

Variants of: B2
Conditions: with parp1_human PARP1, P09874
Target sequence in this assay (P09874 whole entry): as above

| effect of a mutation on the interaction | Variant |
| --- | --- |
| disrupting interaction | C635A;C641A |
